In US20220332804A1 (CSL INNOVATION, published 2022):

Key:
Test in all cases: SPR, antibody captured, C2 as analyte;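 note: biacore SPR at 37 °C, anti-C2 mAbs captured via goat anti-human IgG on CM5 chips, double-referenced sensorgrams fit to a 1:1 kinetic or steady-state model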
human C2 G432A = target: T1, human C2 G432A (human, UniProt P06681 21-752)
T1 sequence: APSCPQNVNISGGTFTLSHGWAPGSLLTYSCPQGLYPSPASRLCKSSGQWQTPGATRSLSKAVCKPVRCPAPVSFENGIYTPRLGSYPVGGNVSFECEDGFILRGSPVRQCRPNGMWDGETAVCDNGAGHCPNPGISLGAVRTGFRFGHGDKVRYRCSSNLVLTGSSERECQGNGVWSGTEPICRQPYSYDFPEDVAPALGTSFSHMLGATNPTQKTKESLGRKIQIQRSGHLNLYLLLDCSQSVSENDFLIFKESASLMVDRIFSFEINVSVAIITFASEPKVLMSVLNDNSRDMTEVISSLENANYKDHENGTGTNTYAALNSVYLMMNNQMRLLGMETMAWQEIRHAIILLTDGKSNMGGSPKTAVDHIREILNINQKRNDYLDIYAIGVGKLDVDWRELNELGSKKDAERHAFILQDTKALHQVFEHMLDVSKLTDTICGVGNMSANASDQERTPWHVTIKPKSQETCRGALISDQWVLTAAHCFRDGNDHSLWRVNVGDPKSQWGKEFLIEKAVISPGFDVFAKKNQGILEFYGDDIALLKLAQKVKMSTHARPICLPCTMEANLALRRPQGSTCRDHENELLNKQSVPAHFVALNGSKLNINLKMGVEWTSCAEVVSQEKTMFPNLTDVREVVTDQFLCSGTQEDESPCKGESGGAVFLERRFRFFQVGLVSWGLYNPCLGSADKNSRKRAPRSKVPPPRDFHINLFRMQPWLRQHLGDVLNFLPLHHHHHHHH

human C2 R493A = target: T2, human C2 R493A (human, UniProt P06681 21-752)
T2 sequence: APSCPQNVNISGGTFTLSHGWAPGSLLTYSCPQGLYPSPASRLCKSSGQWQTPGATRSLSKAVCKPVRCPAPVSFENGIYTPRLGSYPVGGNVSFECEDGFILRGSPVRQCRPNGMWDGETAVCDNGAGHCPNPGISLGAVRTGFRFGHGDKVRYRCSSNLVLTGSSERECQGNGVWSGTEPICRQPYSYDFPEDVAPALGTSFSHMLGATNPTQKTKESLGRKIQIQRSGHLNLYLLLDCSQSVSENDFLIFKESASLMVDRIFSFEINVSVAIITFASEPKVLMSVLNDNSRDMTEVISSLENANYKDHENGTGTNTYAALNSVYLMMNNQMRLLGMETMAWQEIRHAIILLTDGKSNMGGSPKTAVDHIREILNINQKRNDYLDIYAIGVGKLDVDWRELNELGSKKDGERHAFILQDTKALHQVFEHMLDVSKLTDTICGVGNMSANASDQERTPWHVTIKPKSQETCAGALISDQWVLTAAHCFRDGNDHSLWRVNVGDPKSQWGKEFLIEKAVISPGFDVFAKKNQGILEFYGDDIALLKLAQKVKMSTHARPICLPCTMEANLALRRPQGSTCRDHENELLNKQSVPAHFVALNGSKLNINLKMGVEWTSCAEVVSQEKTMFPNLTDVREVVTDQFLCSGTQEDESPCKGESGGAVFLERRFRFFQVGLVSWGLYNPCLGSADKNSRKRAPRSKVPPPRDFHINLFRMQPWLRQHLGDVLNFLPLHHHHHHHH

human C2 P718A = target: T3, human C2 P718A (human, UniProt P06681 21-752)
T3 sequence: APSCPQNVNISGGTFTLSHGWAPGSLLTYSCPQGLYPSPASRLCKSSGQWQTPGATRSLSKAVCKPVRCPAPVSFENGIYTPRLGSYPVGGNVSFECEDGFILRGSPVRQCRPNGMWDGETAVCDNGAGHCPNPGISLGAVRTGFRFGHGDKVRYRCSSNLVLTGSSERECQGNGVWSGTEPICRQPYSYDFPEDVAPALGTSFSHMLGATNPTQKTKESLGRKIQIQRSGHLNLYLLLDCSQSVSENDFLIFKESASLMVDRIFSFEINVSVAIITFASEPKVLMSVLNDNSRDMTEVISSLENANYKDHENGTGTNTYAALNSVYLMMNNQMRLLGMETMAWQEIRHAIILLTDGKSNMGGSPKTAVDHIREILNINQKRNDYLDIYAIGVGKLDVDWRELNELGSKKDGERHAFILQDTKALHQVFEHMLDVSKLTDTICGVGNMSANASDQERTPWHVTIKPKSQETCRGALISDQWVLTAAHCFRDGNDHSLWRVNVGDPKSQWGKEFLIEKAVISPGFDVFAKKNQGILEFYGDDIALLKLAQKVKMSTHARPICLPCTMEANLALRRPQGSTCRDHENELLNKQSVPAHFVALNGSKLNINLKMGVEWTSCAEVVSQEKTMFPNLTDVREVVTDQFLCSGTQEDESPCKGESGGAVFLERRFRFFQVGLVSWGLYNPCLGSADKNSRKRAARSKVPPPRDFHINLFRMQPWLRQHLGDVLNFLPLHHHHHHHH

human C2 R719A = target: T4, human C2 R719A (human, UniProt P06681 21-752)
T4 sequence: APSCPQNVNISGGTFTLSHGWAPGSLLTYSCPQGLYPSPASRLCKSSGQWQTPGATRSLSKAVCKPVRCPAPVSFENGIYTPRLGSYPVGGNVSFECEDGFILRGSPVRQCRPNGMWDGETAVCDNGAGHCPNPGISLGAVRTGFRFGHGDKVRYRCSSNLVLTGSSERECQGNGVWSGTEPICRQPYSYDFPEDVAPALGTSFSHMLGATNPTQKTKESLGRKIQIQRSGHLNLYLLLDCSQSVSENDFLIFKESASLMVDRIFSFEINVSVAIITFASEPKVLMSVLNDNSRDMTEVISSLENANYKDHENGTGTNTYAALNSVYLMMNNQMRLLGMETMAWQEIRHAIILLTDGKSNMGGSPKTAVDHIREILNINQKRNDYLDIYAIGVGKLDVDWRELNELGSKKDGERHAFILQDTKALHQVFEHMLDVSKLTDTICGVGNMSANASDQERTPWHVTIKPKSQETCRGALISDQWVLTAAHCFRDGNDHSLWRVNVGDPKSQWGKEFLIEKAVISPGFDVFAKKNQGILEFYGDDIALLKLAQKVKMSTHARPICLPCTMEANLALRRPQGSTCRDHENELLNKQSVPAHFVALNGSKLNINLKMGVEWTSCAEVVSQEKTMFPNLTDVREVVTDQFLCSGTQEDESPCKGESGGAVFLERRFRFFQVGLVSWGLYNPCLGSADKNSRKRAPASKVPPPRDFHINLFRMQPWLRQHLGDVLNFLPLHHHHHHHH

B1: RF16-226 (antibody, human IgG4 S228P, lambda)
heavy: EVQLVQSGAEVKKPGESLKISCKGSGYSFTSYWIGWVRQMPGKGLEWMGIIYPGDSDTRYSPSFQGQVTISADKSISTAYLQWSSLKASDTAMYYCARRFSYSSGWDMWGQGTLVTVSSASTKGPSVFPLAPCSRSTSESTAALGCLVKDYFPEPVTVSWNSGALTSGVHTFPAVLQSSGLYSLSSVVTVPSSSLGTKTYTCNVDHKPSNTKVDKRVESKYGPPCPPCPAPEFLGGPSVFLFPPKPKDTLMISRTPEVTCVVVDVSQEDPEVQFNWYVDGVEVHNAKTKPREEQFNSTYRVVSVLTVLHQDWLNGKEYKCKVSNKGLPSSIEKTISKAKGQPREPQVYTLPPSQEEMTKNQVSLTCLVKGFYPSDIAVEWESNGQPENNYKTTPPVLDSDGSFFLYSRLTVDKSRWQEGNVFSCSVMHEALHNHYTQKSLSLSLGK
light: SYELTQPPSVSVSPGQTARITCSGDALTSKYVAWYQQKSGLAPLLVIYEDTRRPSGIPAKFSGSSSGSVATLTISGAHGDDEADYYCYSTDASGHQRVFGGGTKLTVLSQPKAAPSVTLFPPSSEELQANKATLVCLISDFYPGAVTVAWKADGSPVKAGVETTKPSKQSNNKYAASSYLSLTPEQWKSHRSYSCQVTHEGSTVEKTVAPTECS
notes: pH-dependent anti-C2 antibody from a phage display library; also called WT
- Kd (human C2 G432A): 6.6 nM
- Kd (human C2 R493A): 24.3 nM
- Kd (human C2 P718A): 15.2 nM
- Kd (human C2 R719A): 8.5 nM
